Measurements from patent publication EP2193147B1.

What was measured:
human ferritin (human) = human ferritin (human) (UniProt P02794); experiment: method not stated
[1] = target: human liver ferritin, Calbiochem (human) (UniProt P02794); experiment: solid-phase RIA, 90Y-labelled antibody, ferritin immobilised at 5 ug/ml on tubes
[2] = target: human liver ferritin, Calbiochem (human) (UniProt P02794); experiment: solid-phase RIA, 111In-labelled antibody, ferritin immobilised at 5 ug/ml on tubes
[3] = target: ferritin of fixed and permeabilized CAPAN-1 cells (human) (UniProt P02794); experiment: 111In-labelled antibody on fixed and permeabilized CAPAN-1 cells, Lindmo linear extrapolation
ferritin of fixed and permeabilized CAPAN-1 cells (human), sequence (P02794 whole entry, chain 1 of 2): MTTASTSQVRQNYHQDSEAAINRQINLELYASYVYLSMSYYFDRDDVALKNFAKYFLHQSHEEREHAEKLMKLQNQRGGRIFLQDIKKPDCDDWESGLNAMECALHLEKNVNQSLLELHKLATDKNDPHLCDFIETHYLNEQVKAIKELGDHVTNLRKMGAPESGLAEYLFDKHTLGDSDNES
ferritin of fixed and permeabilized CAPAN-1 cells (human), sequence (P02792 2-175, chain 2 of 2, further chain): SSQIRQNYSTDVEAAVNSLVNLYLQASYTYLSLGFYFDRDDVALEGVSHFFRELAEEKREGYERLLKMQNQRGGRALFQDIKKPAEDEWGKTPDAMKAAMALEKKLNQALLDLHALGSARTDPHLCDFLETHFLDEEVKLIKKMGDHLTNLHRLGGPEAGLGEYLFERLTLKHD

human liver ferritin, Calbiochem (human), sequence (P02794 2-183 limits assumed, chain 1 of 2): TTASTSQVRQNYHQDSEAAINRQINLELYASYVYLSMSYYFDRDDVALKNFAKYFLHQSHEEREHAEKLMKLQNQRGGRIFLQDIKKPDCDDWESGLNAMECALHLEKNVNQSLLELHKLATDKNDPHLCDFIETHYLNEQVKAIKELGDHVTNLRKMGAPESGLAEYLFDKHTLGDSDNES
human liver ferritin, Calbiochem (human), sequence (P02792 2-175 limits assumed, chain 2 of 2, further chain): as the sequence (P02792 2-175, chain 2 of 2, further chain) above
human ferritin (human), sequence (P02794 2-183 limits assumed, chain 1 of 2): as the sequence (P02794 2-183 limits assumed, chain 1 of 2) above
human ferritin (human), sequence (P02792 2-175 limits assumed, chain 2 of 2, further chain): as the sequence (P02792 2-175, chain 2 of 2, further chain) above

B1: AMB8LK monoclonal IgG1 anti-ferritin antibody (murine, unconjugated) (antibody, from another filing, V domains shown)
VH: QVQLKESGPGLVAPSQSLSITCTVSGFSLSRYSVHWVRQPPGKGLEWLGTIWGGGSTDYNSVLKSRLSISKDNSKSQVLLKVNSLQTDDTAIYYCASGPYYYTMDYWGQGTSVTVSS
VL: QIVLTQSPAILSASLGEEITLTCSASSSVTFMHWYQQKSGTSPKLLIYTTSNLASGVPSRFSGSGSGTFYSLTISSVEAEDAADYYCHQWSSYPTFGSGTKLEIKR
B1 gave a Kd (human ferritin (human)) of 5.1 nM.

B2: Bz-DOTA-AMB8LK (antibody, from another filing, V domains shown)
VH: QVQLKESGPGLVAPSQSLSITCTVSGFSLSRYSVHWVRQPPGKGLEWLGTIWGGGSTDYNSVLKSRLSISKDNSKSQVLLKVNSLQTDDTAIYYCASGPYYYTMDYWGQGTSVTVSS
VL: QIVLTQSPAILSASLGEEITLTCSASSSVTFMHWYQQKSGTSPKLLIYTTSNLASGVPSRFSGSGSGTFYSLTISSVEAEDAADYYCHQWSSYPTFGSGTKLEIKR
With B2 the percentage of bound antibody [1] was 73.2%, the percentage of bound antibody [2] was 76.8% and the immunoreactive fraction [3] was 24%.

B3: Bz-DTPA-AMB8LK (antibody, from another filing, V domains shown)
VH: QVQLKESGPGLVAPSQSLSITCTVSGFSLSRYSVHWVRQPPGKGLEWLGTIWGGGSTDYNSVLKSRLSISKDNSKSQVLLKVNSLQTDDTAIYYCASGPYYYTMDYWGQGTSVTVSS
VL: QIVLTQSPAILSASLGEEITLTCSASSSVTFMHWYQQKSGTSPKLLIYTTSNLASGVPSRFSGSGSGTFYSLTISSVEAEDAADYYCHQWSSYPTFGSGTKLEIKR
B3 showed a percentage of bound antibody [1] of 100%, a percentage of bound antibody [2] of 87% and an immunoreactive fraction [3] of 52%.

B4: Bz-CHX-A"-DTPA-AMB8LK (antibody, from another filing, V domains shown)
VH: QVQLKESGPGLVAPSQSLSITCTVSGFSLSRYSVHWVRQPPGKGLEWLGTIWGGGSTDYNSVLKSRLSISKDNSKSQVLLKVNSLQTDDTAIYYCASGPYYYTMDYWGQGTSVTVSS
VL: QIVLTQSPAILSASLGEEITLTCSASSSVTFMHWYQQKSGTSPKLLIYTTSNLASGVPSRFSGSGSGTFYSLTISSVEAEDAADYYCHQWSSYPTFGSGTKLEIKR
B4 gave a percentage of bound antibody [1] of 98.9%, a percentage of bound antibody [2] of 74.8% and an immunoreactive fraction [3] of 43%.
